Assay [1] has as its system MKN45 gastric cancer cell line. In words: Synthetic lethal screening: siRNA plus anti-c-Met antibody, sensitization index (SI) by CellTiter Blue. It counts as cell-based. To be noted: MKN45 cells, 5 days. Here is the method: To search genes capable of increasing efficacy when suppressed together with an anti-c-Met antibody, synthetic lethal screening was conducted using MKN45 gastric cancer cell line (JCRB, JCRB0254). The synthetic lethal screening was conducted using a total of 1310 genes related to c-Met including 638 genes of EGFR library (Science Signaling, 3, ra67).
First, 0.3 ul of RNAiMax (Life Technologies) and a mixture of two different kinds of 20 nM siRNAs (Qiagen) were added to a 96-well plate, which was incubated at a room temperature for 15 min, wherein RNAiMax and siRNAs were diluted in Opti-MEM (Life Technologies) and a total mixture volume was adjusted to reach 22 ul or so. 78 ul of MKN45 cells diluted in a 5% FBS-containing RPMI1640 medium (GIBCO) were seeded onto each well of the 96-well plate so that each well contained 5000 cells. […]
After 5 days, 20 ul of a diluting solution of CellTiter Blue (Promega, G8081) and HBSS at 1:1 was added to each well, which was incubated at 37° C. for 4 hours. Then, the number of cells was counted via fluorescence signals (560/590 nm), which were measured using Envision 2104 Multi-label Reader (Perkin Elmer).
Since an increase degree in the efficacy of an anti-c-Met antibody to be caused by the expression suppression of each gene was measured as a reduction in cell viability, SI (sensitization index) was calculated. […]

Assay [2] deals with HT29 colorectal cancer cell line. The assay can be described thus: Cell viability, CellTiter Glo, combination with L3-1Y/IgG2 antibody. The assay is classed as cell-based. To be noted: L3-1Y/IgG2 antibody alone (negative control siRNA), 0-2 ug/ml, 72 h. Here is the method:
The efficacy of the combination administration of FGFR3 siRNA and L3-1Y/IgG2 antibody was examined in a colorectal cancer cell line on which the anti-c-Met antibody has no effects. For this, HT29 (ATCC, HTB-38) cells were used. As a control group, All Negative control siRNA (Qiagen, cat. no. 1027281) was used, and as a target siRNA, a mixture of two kinds of siRNAs (see Table 7) that had effects during the screening was used. Transfection was carried out by the same procedures as Example 3.1 and after 24 hours, the cultured cells were treated with L3-1Y/IgG2 antibody at 0 ug/ml, 0.016 ug/ml, 0.08 ug/ml, 0.4 ug/ml, and 2 ug/ml, respectively.
72 hours later after the treatment, 100 uL of CellTiter Glo solution (Promega, G7572) was added to each well, which was allowed to stay at a room temperature for 30 min. The number of cells was counted via luminescence signals, which were recorded using Envision 2104 Multi-label Reader (Perkin Elmer).

B1: L3-1Y/IgG2: anti-c-Met antibody: huAbF46-H4-A1 heavy chain variable region, human IgG2 hinge and constant region, kappa light chain with H36Y (antibody)
heavy: EVQLVESGGGLVQPGGSLRLSCAASGFTFTDYYMSWVRQAPGKGLEWLGFIRNKANGYTTEYSASVKGRFTISRDNSKNTLYLQMNSLRAEDTAVYYCARDNWFAYWGQGTLVTVSSASTKGPSVFPLAPCSRSTSESTAALGCLVKDYFPEPVTVSWNSGALTSGVHTFPAVLQSSGLYSLSSVVTVPSSNFGTQTYTCNVDHKPSNTKVDKTVERKCCVECPPCPAPPVAGPSVFLFPPKPKDTLMISRTPEVTCVVVDVSHEDPEVQFNWYVDGVEVHNAKTKPREEQFNSTFRVVSVLTVVHQDWLNGKEYKCKVSNKGLPAPIEKTISKTKGQPREPQVYTLPPSREEMTKNQVSLTCLVKGFYPSDIAVEWESNGQPENNYKTTPPMLDSDGSFFLYSKLTVDKSRWQQGNVFSCSVMHEALHNHYTQKSLSLSPGK
light: DIQMTQSPSSLSASVGDRVTITCKSSQSLLASGNQNNYLAWYQQKPGKAPKMLIIWASTRVSGVPSRFSGSGSGTDFTLTISSLQPEDFATYYCQQSYSRPYTFGQGTKVEIKRTVAAPSVFIFPPSDEQLKSGTASVVCLLNNFYPREAKVQWKVDNALQSGNSQESVTEQDSKDSTYSLSSTLTLSKADYEKHKVYACEVTHQGLSSPVTKSFNRGEC
Turning to B1, in assay [1], the “final concentration that is approximately IC25~IC35” value was around 0.0625 μl/ml. In assay [2], the “cancer cell growth inhibitory efficacy (cell viability)” value is “did not occur”.

Values taken from patent publication US9567641B2, “Combination therapy for the treatment of cancer using an anti-C-met antibody” (SAMSUNG ELECTRONICS CO., LTD., priority 2013, dated 2017).
